Results: patent US20250327069A1 (CORNELL UNIVERSITY, published 2025)

Columns and labels:
[1] = test system: I-F1 PA14 Csy complex with Cas2/3 (Pseudomonas aeruginosa PA14); test: cell_activity; settings: CC PAM; interference assay, completely depleted
[2] = test system: Tn6900 Cascade-TniQ wild type (with TnsABC) (Aeromonas salmonicida S44); test: cell_activity; settings: CC PAM in transposition screen; about 3-fold
[3] = test system: Tn6900 Cascade-TniQ, Cas8/5 A247Q+S248N Cas8/5 A247Q,S248N (Aeromonas salmonicida S44); test: cell_activity; settings: over half of transposition events at PAMs with -1 C
Chain of Tn6900 Cascade-TniQ, Cas8/5 A247Q+S248N Cas8/5 A247Q,S248N (Aeromonas salmonicida S44) (chain, as listed by the source A247Q S248N A247Q S248N, chain 2 of 2): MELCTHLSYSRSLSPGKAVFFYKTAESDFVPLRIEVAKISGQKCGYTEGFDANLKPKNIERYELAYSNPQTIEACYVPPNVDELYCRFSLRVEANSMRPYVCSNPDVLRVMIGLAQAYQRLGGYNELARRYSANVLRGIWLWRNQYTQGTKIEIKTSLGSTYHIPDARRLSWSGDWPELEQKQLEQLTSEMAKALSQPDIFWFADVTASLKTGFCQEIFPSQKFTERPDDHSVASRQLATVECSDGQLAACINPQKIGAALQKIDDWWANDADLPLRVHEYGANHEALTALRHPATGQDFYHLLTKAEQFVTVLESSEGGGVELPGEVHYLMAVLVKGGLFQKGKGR
Chain of Tn6900 Cascade-TniQ, Cas8/5 A247Q+S248N Cas8/5 A247Q,S248N (Aeromonas salmonicida S44) (chain, as listed by the source A247Q S248N A247Q S248N, chain 3 of 2): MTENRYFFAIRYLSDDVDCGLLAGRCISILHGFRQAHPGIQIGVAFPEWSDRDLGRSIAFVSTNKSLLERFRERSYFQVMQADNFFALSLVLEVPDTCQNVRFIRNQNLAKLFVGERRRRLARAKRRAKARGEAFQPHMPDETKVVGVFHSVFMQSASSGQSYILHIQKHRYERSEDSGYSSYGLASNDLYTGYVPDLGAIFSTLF

[4] = molecular target: the molecule itself; test: cryo-EM structure of the Cascade-TniQ full R-loop complex
[5] = molecular target: T1, Cas8/5 protein of the I-F3b Tn6900 Cascade (Aeromonas salmonicida S44 (Tn6900 …)); test: as above
T1 chain: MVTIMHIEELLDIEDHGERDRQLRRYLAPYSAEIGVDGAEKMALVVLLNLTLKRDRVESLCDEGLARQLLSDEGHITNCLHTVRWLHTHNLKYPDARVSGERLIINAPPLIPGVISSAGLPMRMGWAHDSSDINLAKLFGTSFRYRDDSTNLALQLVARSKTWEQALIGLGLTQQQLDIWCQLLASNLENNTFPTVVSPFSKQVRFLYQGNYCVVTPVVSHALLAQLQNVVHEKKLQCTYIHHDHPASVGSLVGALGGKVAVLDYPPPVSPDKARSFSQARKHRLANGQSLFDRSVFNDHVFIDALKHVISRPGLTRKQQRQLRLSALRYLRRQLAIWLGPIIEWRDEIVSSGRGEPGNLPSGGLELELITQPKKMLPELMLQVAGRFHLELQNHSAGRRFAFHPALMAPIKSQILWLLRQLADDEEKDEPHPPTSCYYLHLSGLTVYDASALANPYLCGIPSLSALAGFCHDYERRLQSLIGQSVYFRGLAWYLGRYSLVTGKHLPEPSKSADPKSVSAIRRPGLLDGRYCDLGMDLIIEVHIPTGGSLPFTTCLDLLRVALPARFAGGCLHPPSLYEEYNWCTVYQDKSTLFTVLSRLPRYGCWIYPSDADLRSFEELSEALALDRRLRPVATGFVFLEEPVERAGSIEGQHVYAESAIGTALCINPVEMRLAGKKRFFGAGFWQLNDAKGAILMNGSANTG

Chain of Tn6900 Cascade-TniQ wild type (with TnsABC) (Aeromonas salmonicida S44) (chain, as listed by the source, chain 2 of 2): as the sequence (chain, as listed by the source A247Q S248N A247Q S248N, chain 2 of 2) above
Chain of Tn6900 Cascade-TniQ wild type (with TnsABC) (Aeromonas salmonicida S44) (chain, as listed by the source, chain 3 of 2): as the sequence (chain, as listed by the source A247Q S248N A247Q S248N, chain 3 of 2) above

PA14 crRNA-ffs ; CC-PAM ffs target was tested, and the enrichment after interference (depletion) (enrichment (depletion)) [1] was < 0.005.

In the case of “atypical crRNA ffs (60 nt) ; CC-PAM ffs target”, the binding signal (fold enrichment) [2] is reported as 3.

With “atypical crRNA ffs (60 nt) ; NN-PAM ffs plasmid pool” the share of transposition events at PAMs with -1 C (% of events with C at -1) [3] was > 50.

B1: TniQ subunit (monomer) of the TniQ homo-dimer (other)
chain: MHLLVRPEPFADEALESYFLRLSQENGFERYRIFSGSVQDWLHTTDHAAAGAFPLELSRLNIFHASRSSGLRVRALQLVDRLTDGAPFRLLQLALCHSAISFGNHYKAVHRSGVDIPLSFIRVHQIPCCPDCLRESAYVRQCWHFKPYVGCHRHGGRLIYSCPACGESLNYLASESINHCQCGFDLRTASTVPAQPDEIQLSALAYGCSFESSNPLLAIGSLSARFGALYWYQQRYLSDHEAVRDDRALTKAIGHFTAWPDAFWRELQQMVDDALVRQTKPLNHTDFVDVFGSVVADCRQIPMRNTGQNFILKNLIGFLTDLVARHPQCRVANVGDLLLSAVDAATLLSTSVEQVRRLHHEGFLPLSIRPASRNTVSPHRAVFHLRHVVELRQARMQSHHDHSSTYLPAW
notes: One chain of the dimer, entered to record the self-association of TniQ; also called TniQ.1; TniQ.2; not shown: His6 tag named only in the plasmid name (pCOLADuet-1-His6-tniQ)
B1: binds [4].

B2: TniQ transposition protein of the I-F3b element Tn6900 (Aeromonas salmonicida S44), homo-dimer as associated with Cascade (other)
chain: B1 chain
notes: Expressed in E. coli together with Cascade and purified as the Cascade-TniQ complex over Ni-NTA through the His6 tag on TniQ; also called His6-TniQ; TniQ dimer; not shown: His6 tag named only in the plasmid name (pCOLADuet-1-His6-tniQ)
B2: binds [5].
